Measured values: doi:10.1101/2021.10.07.463531

Target: HA-Bicc1 with mutation D or with deletion of the KH tandem repeat
Test: co-IP

- percent reduction of co-immunoprecipitated GFP-Bicc1 relative to WT HA-Bicc1: 60 to 75%
B1: GFP-Bicc1 (natural protein)
chain: MASQSEPGYLAAAQSDPGSNSERSTDSPVAGSEDDLVAAAPLLHSPEWSEERFRVDRKKLEAMLQAAAEGKGRSGEDFFQKIMEETNTQIAWPSKLKIGAKSKKDPHIKVSGKKEDVKEAKEMIMSVLDTKSNRVTLKMDVSHTEHSHVIGKGGNNIKKVMEDTGCHIHFPDSNRNNQAEKSNQVSIAGQPAGVESARARIRELLPLVLMFELPIAGILQPVPDPNTPSIQHISQTYSVSVSFKQRSRMYGATVTVRGSQNNTNAVKEGTAMLLEHLAGSLASAIPVSTQLDIAAQHHLFMMGRNGSNVKHIMQRTGAQIHFPDPSNPQKKSTVYLQGTIESVCLARQYLMGCLPLVLMFDMKEDIEVDPQVIAQLMEQLDVFISIKPKPKQPSKSVIVKSVERNALNMYEARKCLLGLESSGVSIATSLSPASCPAGLACPSLDILASAGLGLTGLGLLGPTTLSLNTSATPNSLLNALNTSVSPLQSSSSGTPSPTLWAPPIANTASATGFSTIPHLMLPSTAQATLTNILLSGVPTYGHTAPSPPPGLTPVDVHINSMQTEGKNISASINGHVQPANMKYGPLSTSSLGEKVLSSNHGDPSMQTAGPEQASPKSNSVEGCNDAFVEVGMPRSPSHSGNAGDLKQMLGASKVSCAKRQTVELLQGTKNSHLHGTDRLLSDPELSATESPLADKKAPGSERAAERAAAAQQKSERARLASQPTYVHMQAFDYEQKKLLATKAMLKKPVVTEVRTPTNTWSGLGFSKSMPAETIKELRRANHVSYKPTMTTAYEGSSLSLSRSSSREHLASGSESDNWRDRNGIGPMGHSEFSAPIGSPKRKQNKSREHYLSSSNYMDCISSLTGSNGCNLNSCFKGSDLPELFSKLGLGKYTDVFQQQEIDLQTFLTLTDQDLKELGITTFGARRKMLLAISELSKNRRKLFEPPNASCTSFLEGGASGRLPRQYHSDIASVSGRW
